# T1: human EpCAM, full length, on cells (human, UniProt P16422 24-314)
# T1 construct: also called hEpCAM; EpCAM on DiFi, HPAF-II, A549, OV-90-SC12 and MDA-MB-231_hCLDN6_hEpCAM cells
# T1 sequence: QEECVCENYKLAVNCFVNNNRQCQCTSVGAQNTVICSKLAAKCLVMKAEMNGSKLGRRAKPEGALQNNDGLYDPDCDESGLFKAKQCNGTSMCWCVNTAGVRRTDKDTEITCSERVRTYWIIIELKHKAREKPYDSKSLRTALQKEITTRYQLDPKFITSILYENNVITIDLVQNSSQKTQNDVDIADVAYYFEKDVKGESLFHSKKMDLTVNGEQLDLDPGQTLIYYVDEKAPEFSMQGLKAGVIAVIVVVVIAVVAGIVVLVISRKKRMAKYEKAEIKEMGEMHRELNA
# T2: mouse EpCAM, full length, on transfected CHO-S cells (mouse, UniProt Q99JW5 24-315)
# T2 sequence: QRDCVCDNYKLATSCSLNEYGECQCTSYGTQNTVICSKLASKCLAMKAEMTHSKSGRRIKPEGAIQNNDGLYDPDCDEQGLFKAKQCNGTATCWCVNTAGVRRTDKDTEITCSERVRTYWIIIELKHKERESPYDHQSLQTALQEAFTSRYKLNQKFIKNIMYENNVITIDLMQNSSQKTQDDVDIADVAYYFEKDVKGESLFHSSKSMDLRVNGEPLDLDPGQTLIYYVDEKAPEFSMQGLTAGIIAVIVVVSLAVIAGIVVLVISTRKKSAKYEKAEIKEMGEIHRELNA
# B1: IgG1-EpCAM-A37-FEAR (antibody)
# heavy: not shown
# light: EIELTQSPGTLSLSPGERATLSCRASQTISNNYLAWYQQKRGQAPRLLIYAASSRATGIPDRFSGTGSGTDFTLTISRLEPEDFAVYYCAQGELYPRQFGGGTKLEIKRTVAAPSVFIFPPSDEQLKSGTASVVCLLNNFYPREAKVQWKVDNALQSGNSQESVTEQDSKDSTYSLSSTLTLSKADYEKHKVYACEVTHQGLSSPVTKSFNRGEC
# B2: IgG1-EpCAM-323-A3-FEAR (antibody)
# heavy: QIQLVQSGPELKKPGETVKISCKASGYTFTNYGMNWVRQASGEGLKWMGWINTYTGEPTYGEDFKGRFAFSLETSASTAYLQINNLKNEDTATYFCARFGNYVDYWGQGTTLTVSSASTKGPSVFPLAPSSKSTSGGTAALGCLVKDYFPEPVTVSWNSGALTSGVHTFPAVLQSSGLYSLSSVVTVPSSSLGTQTYICNVNHKPSNTKVDKRVEPKSCDKTHTCPPCPAPEFEGGPSVFLFPPKPKDTLMISRTPEVTCVVVAVSHEDPEVKFNWYVDGVEVHNAKTKPREEQYNSTYRVVSVLTVLHQDWLNGKEYKCKVSNKALPAPIEKTISKAKGQPREPQVYTLPPSREEMTKNQVSLTCLVKGFYPSDIAVEWESNGQPENNYKTTPPVLDSDGSFFLYSRLTVDKSRWQQGNVFSCSVMHEALHNHYTQKSLSLSPG
# light: DIVMTQAAFSNPVTLGTSASISCRSSKNLLHSNGITYLYWYLQKPGQSPHLLIYQMSNLASGVPDRFSSSGSGTDFTLRISRVEAEDVGVYYCAQNLEIPRTFGGGTKLEIKRTVAAPSVFIFPPSDEQLKSGTASVVCLLNNFYPREAKVQWKVDNALQSGNSQESVTEQDSKDSTYSLSSTLTLSKADYEKHKVYACEVTHQGLSSPVTKSFNRGEC
# notes: also called IgG1-323-A3-FEAR
# B3: IgG1-EpCAM-UBS-54-FEAR (antibody, V domains shown)
# VH: QVQLVQSGAEVKKPGSSVRVSCKASGGTFSSYAISWVRQAPGQGLEWMGGIIPIFGTANYAQKFQGRVTITADESTSTAYMELSSLRSEDTAVYYCARDPFLHYWGQGTLVTVSS
# VL: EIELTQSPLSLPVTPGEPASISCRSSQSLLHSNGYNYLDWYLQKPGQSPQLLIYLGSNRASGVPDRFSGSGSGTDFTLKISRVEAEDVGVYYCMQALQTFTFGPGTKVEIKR
# Tests used:
# [1] = target: T1, human EpCAM, full length, on cells; assay: flow cytometry on HPAF-II cells, PE anti-human IgG F(ab')2
# Method: (§1) Binding to the EpCAM-expressing human tumor cell lines DiFi, HPAF-II and A549 by bivalent EpCAM antibodies or bispecific antibodies carrying one EpCAM-binding arm was analyzed by flow cytometry. […] Next, cells were washed once (A-D) or twice (E) in FACS buffer, re-suspended in 100 μL FACS buffer and analyzed on a BD LSRFortessa FACS (BD Biosciences, USA), Celesta (BD Biosciences, USA) or iQue (Sartorius, Germany). Binding curves were analyzed using non-linear regression (sigmoidal dose-response with variable slope) using GraphPad Prism V7.02 software (GraphPad Software, San Diego, CA, USA).
# [2] = target: T1, human EpCAM, full length, on cells; assay: flow cytometry on DiFi cells, PE anti-human IgG F(ab')2
# Method: as §1
# [3] = target: T1, human EpCAM, full length, on cells; assay: flow cytometry on A549 cells, PE anti-human IgG F(ab')2
# Method: as §1
# [4] = target: T1, human EpCAM, full length, on cells; assay: flow cytometry on CHO-S cells transiently transfected with full length human EpCAM, PE anti-human IgG F(ab')2
# Method: (§2) Binding of EpCAM antibodies to CHO-S cells transiently transfected with full length human, cynomolgus monkey or mouse EpCAM was analyzed by flow cytometry. […] Cells were washed twice in FACS buffer, re-suspended in 20 μL FACS buffer supplemented with TO-PRO™-3 Iodide (diluted 1:20000; Invitrogen, cat. no. T3605) and analyzed on an iQue screener (Intellicyt Corporation, USA). Binding curves were analyzed by non-linear regression (sigmoidal dose-response with variable slope) using GraphPad Prism V8.4.1 software (GraphPad Software, San Diego, CA, USA).
# [5] = target: T2, mouse EpCAM, full length, on …; assay: flow cytometry on CHO-S cells transiently transfected with full length mouse EpCAM, PE anti-human IgG F(ab')2
# Method: as §2
# [6] = target: T1, human EpCAM, full length, on cells; assay: flow cytometry on HPAF-II cells, PE anti-human IgG F(ab')2; remark: listed apart in the source
# Method: as §1
# [7] = target: T1, human EpCAM, full length, on cells; assay: flow cytometry on DiFi cells, PE anti-human IgG F(ab')2; remark: listed apart in the source
# Method: as §1
# [8] = target: T1, human EpCAM, full length, on cells; assay: flow cytometry on HPAF-II cells, PE anti-human IgG F(ab')2; remark: listed apart in the source
# Method: as §1
# [9] = target: T1, human EpCAM, full length, on cells; assay: flow cytometry on DiFi cells, PE anti-human IgG F(ab')2; remark: listed apart in the source
# Method: as §1
binder,measurement,setting,value
B1,EC50 (read off the curve),[1],~0.1 µg/mL
same,EC50 (read off the curve),[2],~0.5 µg/mL
same,EC50 (read off the curve),[3],~0.2 µg/mL
same,EC50 (read off the curve),[4],~0.03 µg/mL
same,EC50 (read off the curve),[5],~0.01 µg/mL
B2,EC50 (read off the curve),[6],~0.02 µg/mL
same,EC50 (read off the curve),[7],~0.08 µg/mL
B3,EC50 (read off the curve),[8],~0.2 µg/mL
same,EC50 (read off the curve),[4],~0.04 µg/mL
same,EC50 (read off the curve),[9],~0.4 µg/mL
